Legend:
[1] = molecular target: T1, E. coli-expressed human TNC A2 with C-terminal avi-tag and 6xHis-tag, biotinylated (human, biotinylated in vivo upon expression (avi-tag)); experiment: ELISA, biotinylated human TNC-A2 on neutravidin plates, Fab supernatants detected by anti-Flag/HRP
T1 construct: Used for the selections and ELISA; also called hu TNC A2; biotinylated human TNC A2
T1 chain: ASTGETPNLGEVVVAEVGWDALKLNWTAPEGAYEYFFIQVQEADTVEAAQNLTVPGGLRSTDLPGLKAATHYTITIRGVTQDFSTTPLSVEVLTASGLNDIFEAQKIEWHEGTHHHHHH
Experimental: Selections were carried out over 3 rounds using constant antigen concentrations at 100 nM. In round 2, capture of antigen:phage complexes was performed on neutravidin plates instead of streptavidin beads. Specific binders were identified by ELISA as follows using: 100 μl of 100 nM biotinylated human TNC-A2 was coated in each well of neutravidin plates. Fab-containing bacterial supernatants were added and binding Fabs were detected via their Flag-tags by using an anti-Flag/HRP secondary antibody. Once identified, clone 2B10 was bacterially expressed in a 0.5 litre culture volume, affinity purified and further characterized by SPR-analysis using BIACORE T100. See SEQ ID NOs: 56 and 60.

[2] = molecular target: T2, TNC Fn5-A1-cynoA2-A3 antigen construct (cynomolgus TNC A2 domain in the context of domains A1 and A3), E. … (human; cynomolgus, UniProt P24821 991-1075; P24821 1258-1350); experiment: SPR, Biacore T100, biotinylated antigen on streptavidin chip, Fab as analyte
T2 construct: also called Cyno TNC; Immob E. coli Ag
Experimental: (§1) The affinity of the TNC A2 2B10 Fab fragment as well as of the human IgG1 converted TNC A2 2B10 antibody was subsequently determined and confirmed for human, murine and cynomolgus TNC A2 domain by surface plasmon resonance using a BIACORE® T100 machine (GE Healthcare) at 25° C. For this purpose the biotinylated antigens (expressed in E. coli, antigen in context but not glycosylated) were immobilized on a streptavidin chip and the constructs were used as analytes. For immobilization the antigens were diluted with HBS-EP+ (GE Healthcare, 10 mM HEPES, 150 mM NaCl, 3 mM EDTA, 0.05% Surfactant P20, pH 7.4) to 0.1 μg/ml before injection at a flow rate of 10 μl/minute to achieve approximately 80 response units (RU) of coupled protein. The TNC A2 domain from man, mouse and cynomolgus monkey was expressed in the context of the domains A1 and A3. The antigen constructs comprising the fifth fibronectin type III domain of human TNC (Fn5), the A1 and A2 domain of either human, murine or cynomolgus TNC, and the A3 domain of human TNC (TNC Fn5-A1-human/murine/cynoA2-A3) are shown in SEQ ID NOs 99-104.
(§2) For kinetics measurements, two-fold serial dilutions of Fab fragments (range between 1.56 nM to 100 nM) or IgG (range between 0.39 nM to 25 nM) were injected in HBS-EP+ at 25° C. at a flow rate of 50 μl/min. Association and dissociation times were 180 s and a regeneration with 10 mM glycine pH 1.5 for 60 s was performed between cycles. Association rates (kₒₙ) and dissociation rates (koff) were calculated using a simple one-to-one Langmuir binding model (BIACORE® T100 Evaluation Software version 1.1.1) by simultaneously fitting the association and dissociation sensorgrams. The equilibrium dissociation constant (KD) was calculated as the ratio koff/kₒₙ. See, e.g., Chen et al., J Mol Biol 293, 865-881 (1999)

[3] = molecular target: T3, TNC Fn5-A1-murineA2-A3 antigen construct (murine TNC A2 domain in the context of domains A1 and A3), E. … (human; murine, UniProt P24821 991-1075; Q80YX1 1076-1257; P24821 1258-1350, limits assumed, biotinylated); experiment: as above
T3 construct: domain: fifth fibronectin type III domain (Fn5);domain: A1 and A2 domain;domain: A3 domain; also called Immob E. coli Ag
T3 sequence (looked up): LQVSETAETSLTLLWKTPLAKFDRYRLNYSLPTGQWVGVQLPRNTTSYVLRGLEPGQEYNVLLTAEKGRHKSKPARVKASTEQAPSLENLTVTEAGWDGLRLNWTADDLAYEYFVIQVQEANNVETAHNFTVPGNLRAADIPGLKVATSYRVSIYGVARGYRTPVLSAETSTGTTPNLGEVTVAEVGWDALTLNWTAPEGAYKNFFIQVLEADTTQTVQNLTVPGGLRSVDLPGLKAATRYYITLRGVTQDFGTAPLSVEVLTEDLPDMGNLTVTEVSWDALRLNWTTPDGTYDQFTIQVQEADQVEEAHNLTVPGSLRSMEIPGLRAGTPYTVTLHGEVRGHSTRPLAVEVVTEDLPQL
Experimental: as §1, §2

[4] = molecular target: T4, TNC Fn5-A1-humanA2-A3 antigen construct (human TNC A2 domain in the context of domains A1 and A3), E. … (human, UniProt P24821 991-1075; P24821 1076-1257; P24821 1258-1350, limits assumed, biotinylated); experiment: as above
T4 construct: domain: fifth fibronectin type III domain (Fn5);domain: A1 and A2 domain;domain: A3 domain; Not glycosylated; also called Immob E. coli Ag
T4 sequence (looked up): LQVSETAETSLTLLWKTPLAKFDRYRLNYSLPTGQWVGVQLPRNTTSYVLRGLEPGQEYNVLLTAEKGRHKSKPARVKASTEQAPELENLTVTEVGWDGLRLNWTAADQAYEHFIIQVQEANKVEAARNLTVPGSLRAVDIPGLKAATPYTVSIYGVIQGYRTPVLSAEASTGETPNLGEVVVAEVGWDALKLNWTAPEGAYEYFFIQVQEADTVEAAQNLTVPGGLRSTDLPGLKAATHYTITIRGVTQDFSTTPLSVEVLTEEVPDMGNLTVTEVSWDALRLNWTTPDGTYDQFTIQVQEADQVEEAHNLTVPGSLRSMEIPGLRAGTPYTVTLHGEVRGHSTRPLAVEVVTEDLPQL
Experimental: as §1, §2

[5] = molecular target: T2, TNC Fn5-A1-cynoA2-A3 antigen construct …; experiment: SPR, Biacore T100, biotinylated antigen on streptavidin chip, IgG as analyte (avidity)
Experimental: as §1, §2

[6] = molecular target: T3, TNC Fn5-A1-murineA2-A3 antigen …; experiment: as above
Experimental: as §1, §2

[7] = molecular target: T4, TNC Fn5-A1-humanA2-A3 antigen construct …; experiment: as above
Experimental: as §1, §2

[8] = molecular target: T1, E. coli-expressed human TNC A2 with …; experiment: selection on human TNC A2, ELISA and ProteOn screening
Experimental: Selections were carried out against E. coli expressed human TNC A2 which was cloned upstream an avi-tag and 6×his-tag (see SEQ ID NO: 97). The antigen was biotinylated in vivo upon expression. Selections have been carried out in solution as described for the primary TNC A2 selections using decreasing concentrations of human TNC A2 ranging from 100 to 2 nM. After identification of affinity-matured clones by ELISA, secondary screenings were carried out using a ProteOn XPR36 biosensor (Biorad) and kinetic rate constants and affinities were determined analyzing affinity-purified Fab preparations on the same instrument. KD was measured by surface plasmon resonance using a ProteOn XPR36 machine (Biorad) at 25° C. with antigens immobilized on NLC sensor chips (Biorad). Briefly, recombinant antigen was diluted to 10 μg/ml in PBS/0.005% Tween-20, pH 7.4 and injected at […] for 100 to 300 s to achieve approximately 200-800 response units (RU) of coupled antigen. […] Association rates (kₒₙ) and dissociation rates (koff) were calculated using a simple one-to-one Langmuir binding model (ProteOn manager software version 2.1) by simultaneously fitting the association and dissociation sensorgrams. The equilibrium dissociation constant (KD) is calculated as the ratio koff/kₒₙ.

B1: 2B10 anti-TNC A2 Fab fragment (parental clone 2B10) (Fab, V domains shown)
VH: QVQLVQSGAEVKKPGSSVKVSCKASGGTFSSYAISWVRQAPGQGLEWMGGIIPIFGTANYAQKFQGRVTITADKSTSTAYMELSSLRSEDTAVYYCARLYGYAYYGAFDYWGQGTTVTVSS
VL: DIQMTQSPSSLSASVGDRVTITCRASQGIRNDLGWYQQKPGKAPKRLIYAASSLQSGVPSRFSGGGSGTEFTLTISSLQPEDFATYYCLQNGLQPATFGQGTKVEIK
notes: also called TNC A2 2B10 Fab fragment; Fab fragment 2B10
For B1, the binding result [1] was “binds”, the Kd [2] was 17 nM and the Kd [3] was 180 nM. For the same binder, the Kd [4] was 1.8 nM.

B2: 2B10 anti-TNC A2 human IgG1 antibody (wild-type, non-glycoengineered) (antibody, V domains shown)
VH: QVQLVQSGAEVKKPGSSVKVSCKASGGTFSSYAISWVRQAPGQGLEWMGGIIPIFGTANYAQKFQGRVTITADKSTSTAYMELSSLRSEDTAVYYCARLYGYAYYGAFDYWGQGTTVTVSS
VL: DIQMTQSPSSLSASVGDRVTITCRASQGIRNDLGWYQQKPGKAPKRLIYAASSLQSGVPSRFSGGGSGTEFTLTISSLQPEDFATYYCLQNGLQPATFGQGTKVEIK
notes: also called IgG 2B10; 2B10 human IgG
B2 gave a Kd [5] of 0.21 nM, a Kd [6] of 1.9 nM and a Kd [7] of 0.29 nM.

B3: 2B10_D1A2 affinity-matured anti-TNC A2 Fab clone (Fab, V domains shown)
VH: QVQLVQSGAEVKKPGSSVKVSCKASGGTFSSYAISWVRQAPGQGLEWMGGIIPIFGTANYAQKFQGRVTITADKSTSTAYMELSSLRSEDTAVYYCARLYGYAYYGAFDYWGQGTTVTVSS
VL: DIQMTQSPSSLSASVGDRVTITCRASQGIRNVLGWYQQKPGKAPKRLIYDAYSLQSGVPSRFSGGGSGTEFTLTISSLQPEDFATYYCLQNGLQPATFGQGTKVEIK
notes: From the VL sub-library; No KD is printed for this clone; also called clone 2B10_D1A2
B3: binds [8].

Reference: patent US20160264651A1 (Hoffmann-La Roche, published 2016)
